Results: the supplement of paper PMC10724198
± gives the standard deviation of the averaged measurements.

system: Saccharomyces cerevisiae; experiment: protein stability index of tFT-peptide fusion (C-terminal peptide) (PSI (0-1 scale)); higher = more stable (slower turnover); conditions: genetic background: wild type; temperature: 30 C
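Further: PSI is a weighted mean of sequencing reads over stability bins, variants kept only with over 10 reads, mCherry proximal and sfGFP distal, peptide attached via GGGS linker.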

Sequence	protein stability index
PPPPPLQRFPPF	0.644 ± 0.046
ERGRRPAGGGEK	0.719 ± 0.028
DLPYLYPRCLIS	0.72683 ± 0.00028
GWWCAGVREWTR	0.8 ± 0.013
FLLSARGVIVFW	0.544 ± 0.018
RACVCPCHPHRY	0.737 ± 0.025
PPPSPPPYRLPP	0.7 ± 0.016
KDKEQKKIKKSI	0.681 ± 0.13
SSSFFLFPVGFF	0.784 ± 0.14
PNLSPPTPLSAD	0.649 ± 0.018
VGSGEVFEVMEG	0.64 ± 0.036
SPASPLDPSSSS	0.712 ± 0.037
APPPPRAPTPPP	0.696 ± 0.011
LHSNFGSSVFSL	0.713 ± 0.012
KRGRRKLQRGRQ	0.679 ± 0.028
KNKREKKKENTK	0.682 ± 0.0078
LLFFRSPFSLVS	0.6465 ± 0.0059
PRLCFPPPPAPA	0.688 ± 0.083
WCGDVLWLMSCG	0.714 ± 0.016
PRTDIGGAGLGE	0.6961 ± 0.0019
RPPPLPLPPHFP	0.709 ± 0.069
LPPQRPSQYLLH	0.786 ± 0.11
GIFSGTDRNLVC	0.7075 ± 0.0069
LLSLLQLPASAS	0.605 ± 0.03
SSRVLFRVSVLR	0.646 ± 0.09
GVLDTRWIIIST	0.53 ± 0.029

Sequence	protein stability index
APASSSAHTPFP	0.723 ± 0.019
GEGLGGGRGRRW	0.653 ± 0.026
GGGARREGAGRG	0.6752 ± 0.0064
VGSSSRSLFWCF	0.689 ± 0.04
GGRVFWGGSRSV	0.651 ± 0.033
RLSSFDELSDVY	0.729 ± 0.026
WPGRAVCLGAGW	0.734 ± 0.056
PLPPPHSPPPSA	0.677 ± 0.011
VCKQASDSKLQG	0.663 ± 0.023
ARAGQGEWGGGV	0.701 ± 0.033
PPPLPPPPAPPY	0.734 ± 0.018
CVWFGVGRCCGR	0.648 ± 0.043
IGVVKHGAAEKV	0.711 ± 0.069
WYMKFYNKKMKE	0.702 ± 0.04
PPSTFDPSTLRP	0.665 ± 0.041
PPRPSPPLSPLP	0.72 ± 0.042
FLFTLPPPPRCH	0.709 ± 0.088
VLCLRSNRHGVF	0.698 ± 0.015
LARWFILRDLIY	0.56 ± 0.0089
PPPLLSAPPHCE	0.684 ± 0.052
VRSTPLKEMMRH	0.681 ± 0.0092
VPVRLRSGGVSP	0.66 ± 0.058
GGVEGGGCVGGG	0.581 ± 0.014
AAGWLWVWGVEG	0.6429 ± 0.0017
TIPSHPLLPTLC	0.648 ± 0.049
PSPPVPPLPPVF	0.55 ± 0.032

Sequence	protein stability index
WGAGGGVWWGGV	0.704 ± 0.03
VSSRWGGWWNGV	0.655 ± 0.046
PAAIARNPLPHR	0.605 ± 0.075
CKHPAWFQPRVG	0.618 ± 0.044
EEMEKRNREKEL	0.691 ± 0.094
SHRYFFLAFSGL	0.655 ± 0.02
RKEVKAWKTTDI	0.694 ± 0.013
VGGGGGGCLVDC	0.653 ± 0.028
CLRRGGAGEGAS	0.687 ± 0.0037
FGVSFFSGVNGV	0.681 ± 0.011
YSDNIHIEFEDC	0.737 ± 0.068
TMHFVWVLGILE	0.524 ± 0.014
GPFLFPGASCGL	0.717 ± 0.011
PGWHLDPITALP	0.712 ± 0.027
PTRPPNEPTVHP	0.659 ± 0.066
VGCFLDSLWDWV	0.679 ± 0.022
PPAPLAPPPAGC	0.67 ± 0.038
LHSPWPFSAPGI	0.855 ± 0.2
QKDLDGSLANST	0.692 ± 0.025
LFTPLLVPYPTP	0.522 ± 0.0028
SMGSGCTPSMVS	0.654 ± 0.11
ARLPCVVFLLDE	0.666 ± 0.036
AGLRRLRDFGSN	0.726 ± 0.037
SWPTRRLVVHGL	0.655 ± 0.0071
PLSPSPPPASLL	0.702 ± 0.018
CVGLIGVINGGL	0.558 ± 0.0081

Sequence	protein stability index
LRPILLSWFRKS	0.61 ± 0.039
PPPPPLPRALST	0.72 ± 0.044
CSFFGPGFICSL	0.666 ± 0.013
LGGRGGACRRDR	0.7 ± 0.019
PSFLPLPLPSSF	0.718 ± 0.028
FAWSPPACFIPS	0.654 ± 0.011
PRPPPPRPRSSP	0.667 ± 0.066
FDLVFRPVLGLL	0.6246 ± 0.0052
SLLLALPSLPLS	0.553 ± 0.18
QCASPRLSLGSP	0.703 ± 0.03
SYGADSVSYLKT	0.651 ± 0.033
RSFLTDLLRGAA	0.647 ± 0.054
GIVGCDFLLFYF	0.698 ± 0.018
GSQRAHRQAAHD	0.683 ± 0.077
KEDKLLRSSEGF	0.6886 ± 0.0029
TLPVKAGHWRLG	0.73084 ± 0.00065
GGVGWGMVEGWR	0.685 ± 0.057
KIKKLKKRNKSY	0.612 ± 0.023
SKWGQIKRVAIR	0.592 ± 0.038
RAADGWGVLCGV	0.679 ± 0.095
YGVRCSRINRSG	0.678 ± 0.059
KKKKSKIKKKRE	0.665 ± 0.042
SRDSRSSRRAGA	0.702 ± 0.065
GWGGCDSVVVSG	0.697 ± 0.033
PRSSPEPTCQDP	0.647 ± 0.099
FLAWPRSDYPGF	0.732 ± 0.022

Sequence	protein stability index
LECLSRGWSIYC	0.541 ± 0.05
RKVTQSKQGKKR	0.722 ± 0.0093
DPPLPAHPDVPP	0.771 ± 0.086
VGRLGPMVGLLL	0.6 ± 0.083
RSRHPPPPLLFP	0.707 ± 0.043
TPPLALPAPCST	0.679 ± 0.035
GGRGAGSDVGSL	0.677 ± 0.04
NVNAVAVILGAC	0.562 ± 0.0061
GTTHHRRKPSYL	0.725 ± 0.05
SFTGSASYPKGR	0.667 ± 0.0098
GVPAPVFCRSIF	0.618 ± 0.015
WGAKGLESIHVM	0.6 ± 0.019
PRIPPPIPPDTP	0.695 ± 0.045
VFALFRLSSLDK	0.673 ± 0.074
PSPLPTALLTNR	0.644 ± 0.14
EGGLKIRRSRDE	0.657 ± 0.024
FLLPPPFLPLPL	0.691 ± 0.028
PPLPPLPLPNPP	0.676 ± 0.064
LFALSVHTHPYP	0.73 ± 0.024
EKLRGRKKGELQ	0.668 ± 0.036
PSPSPNALALLR	0.71439 ± 0.00045
PPPLPLPSPPPS	0.664 ± 0.08
GPVLELWLGRSR	0.775 ± 0.04
LTLPPRPPSPPS	0.675 ± 0.08
LHPAPPAAPTRP	0.711 ± 0.016
IGLKKVVKIRKD	0.614 ± 0.039

Sequence	protein stability index
EIVKAHKVKKRK	0.7166 ± 0.0045
PTDFTPREAIGI	0.68 ± 0.087
ILYNIEKQQSSV	0.683 ± 0.032
PLTVPLPSPRLI	0.645 ± 0.1
SPLPPTPPPISP	0.6721 ± 0.00083
GFLGCGSGCGWG	0.744 ± 0.057
RLEMPSVRSCAV	0.638 ± 0.17
PPSTSPTLTSAR	0.722 ± 0.016
ASAPPHVSAPSP	0.654 ± 0.012
QISLPDASLPPS	0.67 ± 0.079
RNKSRMWKEIIR	0.657 ± 0.069
KKPVALVESRRV	0.662 ± 0.055
WGRCVGLAGAAG	0.677 ± 0.027
RKSTVILLLTDT	0.668 ± 0.054
PAALPHTPSAPY	0.666 ± 0.04
HPPPVLSPPLSP	0.7107 ± 0.0033
GGGGGVGVVRVG	0.66 ± 0.032
RCLPSASYPACS	0.691 ± 0.074
LKYETGTILRMT	0.563 ± 0.013
FSRFWVSGGVVC	0.599 ± 0.0082
CSVVMGFYCRGA	0.694 ± 0.038
RRLLRWFYLDGG	0.661 ± 0.022
VEAFIVDETRVV	0.6984 ± 0.0064
GPSCSGLHAPTS	0.831 ± 0.1
AGWGWGARQGAL	0.659 ± 0.037
AEERATKNGARQ	0.67 ± 0.055

Sequence	protein stability index
IYRWSGTVGGER	0.6971 ± 0.003
PPPPGPPPPSSL	0.6914 ± 0.006
KKYKKKKKRARY	0.698 ± 0.019
GSRSLISLRTGA	0.604 ± 0.037
HYPLPPLLPPAP	0.674 ± 0.014
PSLSPLPPRTTS	0.732 ± 0.048
PPPPPPTPDPLA	0.666 ± 0.048
HPWAFRIRTPRL	0.752 ± 0.09
PLVPRCFVPPVI	0.657 ± 0.023
PHRPSPPIPLSV	0.662 ± 0.043
PPPPPAPPPVSI	0.659 ± 0.071
ALRVGTGTVRFE	0.712 ± 0.051
GGGAGVTLSADG	0.682 ± 0.059
WYGSYPLTLESY	0.613 ± 0.013
LEFEIYHSECTV	0.685 ± 0.088
RSRPPPSPTTPL	0.775 ± 0.054
EKKKKKPKKKRK	0.687 ± 0.026
LSWDVWWYFLSV	0.594 ± 0.0063
CANFIGAVPGSV	0.686 ± 0.011
PRHSPPPPLPAP	0.699 ± 0.014
NQERYKKIRSKQ	0.714 ± 0.054
VSGGRQVGWGGW	0.686 ± 0.011
KQKKKIKIQNKT	0.689 ± 0.12
GGCVGVLGGWGF	0.6827 ± 0.0032
PICCPLILTRSL	0.706 ± 0.019
RVRDPQQISILL	0.65 ± 0.025

Sequence	protein stability index
TFPPLSPSPPLS	0.727 ± 0.13
CAAYIYLGGSFF	0.707 ± 0.033
GGGERTAGVGQT	0.733 ± 0.05
FTLYLASVHFTR	0.56 ± 0.044
YKKKKKKKNNKK	0.662 ± 0.043
VSSAGAQHQVTH	0.667 ± 0.025
PFPSPSPLARLP	0.704 ± 0.054
PSHPAPGPSTRQ	0.673 ± 0.032
RLGERGAKPQGR	0.635 ± 0.0074
RPAFSPDVSPPS	0.716 ± 0.013
PPLPPSLPGSSL	0.642 ± 0.053
TTITTRSCALSS	0.707 ± 0.015
PCPPRSLPPPTS	0.835 ± 0.16
SSLSPTPPPSFP	0.84 ± 0.2
HRARWLSLGVTW	0.655 ± 0.035
PWANRVCFLHMK	0.678 ± 0.037
KTKKKKKKKINK	0.711 ± 0.11
RGEGLRYVQGSR	0.668 ± 0.042
WGGFLVDFGFQG	0.757 ± 0.046
VIEIGEYSGNGK	0.707 ± 0.046
